# Assay results from patent US20250152742A1, “COMPOSITIONS AND METHODS FOR NEUROLOGICAL DISEASES” (Trames Bio, Inc., priority 2022, published 2025).
# Substitutions are numbered along the chain they refer to. Numbers in names are those of the source.
# B1: CODA236: engineered receptor: R101F in SEQ ID NO: 33 (protein)
# chain: MRCSPGGVWLALAASLLHVSLQGEFQRKLYKELVKNYNPLERPVANDSQPLTVYFSLSLLQIMDVDEKNQVLTTNIWLQMSWTDHYLQWNVSEYPGVKTVFFPDGQIWKPDILLYNSADERFDATFHTNVLVNSSGHCQYLPPGIFKSSCPMDLKNFPMDVQTCKLKFGSWSYGGWSLDLQMQEADISGYIPNGEWDLVGIPGKRSERFYECCKEPYPDVTFTVTMRRRMGYYLIQMYIPSLLIVILSWISFWINMDAAPARVGLGITTVLTMTTQSSGSRASLPKVSYVKAIDIWMAVCLLFVFSALLEYAAVNFVSRQHKELLRFRRKRRHHKSPMLNLFQEDEAGEGRFNFSAYGMGPACLQAKDGISVKGANNSNTTNPPPAPSKSPEEMRKLFIQRAKKIDKISRIGFPMAFLIFNMFYWIIYKIVRREDVHNQ
# modifications: synthetic sequence of chimeric LGIC
# B2: CODA237: engineered receptor: R101M in SEQ ID NO: 33 (protein)
# chain: B1 chain with F101M
# modifications: synthetic sequence of chimeric LGIC
# System: engineered chimeric receptor SEQ ID NO: 33 and its mutants (human α7-nAChR ligand binding domain / human GlyRα1 ion pore domain) in Lenti-X 293T cells
# Assay: YFP fluorescence quenching anion reporter plate reader assay (percent quench, EC50)
# Format: cell-based
# Conditions: for YFP fluorescence quenching using CNL001 (percent quench): receptor named in row; for YFP fluorescence quenching using Facinicline, 30 nM fac: ligand Facinicline 30 nM; for YFP fluorescence quenching using Facinicline, 300 nM fac: ligand Facinicline 300 nM; for YFP fluorescence quenching using Facinicline, 30 uM fac: ligand Facinicline 30 uM; for YFP fluorescence quenching using TC-6987, 1 uM tc6987: ligand TC-6987 1 uM; for YFP fluorescence quenching using TC-6987, 10 uM tc6987: ligand TC-6987 10 uM; for YFP fluorescence quenching using TC-6987, 500 uM tc6987: ligand TC-6987 500 uM; for YFP fluorescence quenching using Varenicline, 3 nM var: ligand Varenicline 3 nM; for YFP fluorescence quenching using Varenicline, 30 nM var: ligand Varenicline 30 nM; for YFP fluorescence quenching using Varenicline, 300 nM var: ligand Varenicline 300 nM; for YFP fluorescence quenching using Varenicline, 500 nM var: ligand Varenicline 500 nM; for YFP fluorescence quenching using Varenicline, 1 uM var: ligand Varenicline 1 uM
# Text: To screen these mutant LGICs for those having novel response profiles to ligands, an anion reporter assay was developed to assess the function of the LGICs in a high throughput format. In this assay, cells expressing a YFP reporter whose fluorescence is quenched in the presence of anion are transfected with DNA encoding the channel of interest. Upon exposure to ligand, channels that are activated will flux anion, resulting in a dose-dependent quench of the YFP that can be detected on a plate reader. The greater the quench signal (i.e., the more positive the value), the higher the ligand activity on the receptor is.
# Lenti-X 293T cells (LX293T, Clontech) were maintained in DMEM containing 10% FBS and 1% penicillin/streptomycin (Invitrogen). […] Two days before assay, cells were split at a density of 20,000 cells/well in a 96-well tissue culture plate coated with poly-d lysine (Thermo Scientific). The next day, the cells were transiently transfected with 0.1 μg of DNA per well using standard Fugene protocol (Promega). On the day of assay, cells were washed 2 times in 1X extracellular solution (1X ECS: 140 mM NaCl, 5 mM KCl, 1 mM MgCl2, 2 mM CaCl2, 10 mM HEPES, 10 mM glucose, pH 7.2, mOsms 300). After the last wash, 100 μL of 1X ECS was added to the wells and the plate was incubated at 37° C. for 30 min. While incubating the plate, the drugs were diluted to a 2X concentration in 1X ECS-Nal (same components as 1X ECS except the 140 mM NaCl was replaced by 140 mM Nal). The plates were then read on a Flexstation3 (Molecular Devices). Each well, 8 wells at a time, of the plate is read for 2 min using a Flexstation3 (Molecular Devices) as follows: 1) a baseline YFP fluorescence is read for 17 sec, 2) 100 μL of ligand is added, and 3) the changes in YFP fluorescence are then measured every 1.3 sec for 1 minute and 43 seconds. The percent quench is calculated from the average fluorescence of the last 10 seconds of the read divided by the baseline average of the first 15 seconds prior to the ligand addition.
# FIGS. 1A-1J provide heat maps of the percent quench of YFP fluorescence following stimulation by various doses of either acetylcholine or the non-native ligand as indicated in the Figures. CODA71 (SEQ ID NO: 33) was used as a control, and CODA75 (SEQ ID NO: 29, a non-responding chimeric engineered receptor) was used as the negative control. Quenching of the fluorescence signal, as indicated by blue shaded cells, indicate the level of engineered receptor activation by the non-native ligand at that concentration.
# [1] = 1 nM CNL001, first column so headed
# [2] = 1 nM CNL001, second column so headed
# [3] = 3 nM brd (TC-5619/Bradanicline)
# [4] = 10 nM CNL001, first column so headed
# [5] = 10 nM CNL001, second column so headed
# [6] = 30 nM brd (TC-5619/Bradanicline)
# [7] = 50 nM CNL001, first column so headed
# [8] = 50 nM CNL001, second column so headed
# [9] = 100 nM CNL001, first column so headed
# [10] = 100 nM CNL001, second column so headed
# [11] = 300 nM brd (TC-5619/Bradanicline)
# [12] = 1 uM CNL001, first column so headed
# [13] = 1 uM CNL001, second column so headed
molecule,measurement,setting,value
B1,YFP fluorescence quenching using CNL001 (percent quench),[1],9.048%
same,YFP fluorescence quenching using CNL001 (percent quench),[2],26.601%
same,YFP fluorescence quenching using TC-5619/Bradanicline (percent quench),[3],49.33%
same,YFP fluorescence quenching using CNL001 (percent quench),[4],71.533%
same,YFP fluorescence quenching using CNL001 (percent quench),[5],72.948%
same,YFP fluorescence quenching using TC-5619/Bradanicline (percent quench),[6],77.38%
same,YFP fluorescence quenching using CNL001 (percent quench),[7],75.895%
same,YFP fluorescence quenching using CNL001 (percent quench),[8],74.238%
same,YFP fluorescence quenching using ABT-126 (percent quench),50 nM abt (ABT-126),−18.69%
same,YFP fluorescence quenching using CNL001 (percent quench),[9],76%
same,YFP fluorescence quenching using CNL001 (percent quench),[10],75.861%
same,YFP fluorescence quenching (percent quench),100 nM CNL002,−9.56%
same,YFP fluorescence quenching using ABT-126 (percent quench),100 nM abt (ABT-126),−23.01%
same,YFP fluorescence quenching using AZD-0328 (percent quench),100 nM azd0328,−9.78%
same,YFP fluorescence quenching using ABT-126 (percent quench),300 nM abt (ABT-126),−20.92%
same,YFP fluorescence quenching using AZD-0328 (percent quench),300 nM azd0328,49.64%
same,YFP fluorescence quenching using TC-5619/Bradanicline (percent quench),[11],77.51%
same,YFP fluorescence quenching using CNL001 (percent quench),[12],76.367%
same,YFP fluorescence quenching using CNL001 (percent quench),[13],76.162%
same,YFP fluorescence quenching (percent quench),1 uM CNL002,56.9%
same,YFP fluorescence quenching using ABT-126 (percent quench),1 uM abt (ABT-126),4.99%
same,YFP fluorescence quenching (percent quench),10 uM ach (acetylcholine),−18.24%
same,YFP fluorescence quenching (percent quench),30 uM CNL002,70.28%
same,YFP fluorescence quenching using AZD-0328 (percent quench),30 uM azd0328,81.14%
same,YFP fluorescence quenching (percent quench),100 uM ach (acetylcholine),60%
same,YFP fluorescence quenching (percent quench),1 mM ach (acetylcholine),66.07%
same,YFP fluorescence quenching (percent quench),3 mM ach (acetylcholine),71.38%
same,"YFP fluorescence quenching using Facinicline, 30 nM fac",,−28.54
same,"YFP fluorescence quenching using Facinicline, 300 nM fac",,72.98
same,"YFP fluorescence quenching using Facinicline, 30 uM fac",,87.6
same,"YFP fluorescence quenching using TC-6987, 1 uM tc6987",,45.34
same,"YFP fluorescence quenching using TC-6987, 10 uM tc6987",,70.04
same,"YFP fluorescence quenching using TC-6987, 500 uM tc6987",,75.86
same,"YFP fluorescence quenching using Varenicline, 3 nM var",first column,19.949
same,"YFP fluorescence quenching using Varenicline, 3 nM var",second column,22.334
same,"YFP fluorescence quenching using Varenicline, 30 nM var",first column,15.764
same,"YFP fluorescence quenching using Varenicline, 30 nM var",second column,16.213
same,"YFP fluorescence quenching using Varenicline, 300 nM var",first column,23.135
same,"YFP fluorescence quenching using Varenicline, 300 nM var",second column,22.987
same,"YFP fluorescence quenching using Varenicline, 500 nM var",first column,35.048
same,"YFP fluorescence quenching using Varenicline, 500 nM var",second column,34.188
same,"YFP fluorescence quenching using Varenicline, 1 uM var",first column,71.031
same,"YFP fluorescence quenching using Varenicline, 1 uM var",second column,71.005
B2,YFP fluorescence quenching using CNL001 (percent quench),[1],−2.114%
same,YFP fluorescence quenching using CNL001 (percent quench),[2],−5.079%
same,YFP fluorescence quenching using TC-5619/Bradanicline (percent quench),[3],−14.87%
same,YFP fluorescence quenching using CNL001 (percent quench),[4],15.096%
same,YFP fluorescence quenching using CNL001 (percent quench),[5],50.554%
same,YFP fluorescence quenching using TC-5619/Bradanicline (percent quench),[6],69.93%
same,YFP fluorescence quenching using CNL001 (percent quench),[7],66.585%
same,YFP fluorescence quenching using CNL001 (percent quench),[8],74.462%
same,YFP fluorescence quenching using ABT-126 (percent quench),50 nM abt (ABT-126),−24.34%
same,YFP fluorescence quenching using CNL001 (percent quench),[9],78%
same,YFP fluorescence quenching using CNL001 (percent quench),[10],77.411%
same,YFP fluorescence quenching (percent quench),100 nM CNL002,−8.68%
same,YFP fluorescence quenching using ABT-126 (percent quench),100 nM abt (ABT-126),−20.22%
same,YFP fluorescence quenching using AZD-0328 (percent quench),100 nM azd0328,−17.84%
same,YFP fluorescence quenching using ABT-126 (percent quench),300 nM abt (ABT-126),−20.57%
same,YFP fluorescence quenching using AZD-0328 (percent quench),300 nM azd0328,−11.98%
same,YFP fluorescence quenching using TC-5619/Bradanicline (percent quench),[11],76.57%
same,YFP fluorescence quenching using CNL001 (percent quench),[12],79.06%
same,YFP fluorescence quenching using CNL001 (percent quench),[13],79.162%
same,YFP fluorescence quenching (percent quench),1 uM CNL002,−2.24%
same,YFP fluorescence quenching using ABT-126 (percent quench),1 uM abt (ABT-126),−19.55%
same,YFP fluorescence quenching (percent quench),10 uM ach (acetylcholine),−16.79%
same,YFP fluorescence quenching (percent quench),30 uM CNL002,66.99%
same,YFP fluorescence quenching using AZD-0328 (percent quench),30 uM azd0328,81.2%
same,YFP fluorescence quenching (percent quench),100 uM ach (acetylcholine),−18.63%
same,YFP fluorescence quenching (percent quench),1 mM ach (acetylcholine),46.28%
same,YFP fluorescence quenching (percent quench),3 mM ach (acetylcholine),69.31%
same,"YFP fluorescence quenching using Facinicline, 30 nM fac",,−24.14
same,"YFP fluorescence quenching using Facinicline, 300 nM fac",,−14.38
same,"YFP fluorescence quenching using Facinicline, 30 uM fac",,88.78
same,"YFP fluorescence quenching using TC-6987, 1 uM tc6987",,−21.62
same,"YFP fluorescence quenching using TC-6987, 10 uM tc6987",,21.52
same,"YFP fluorescence quenching using TC-6987, 500 uM tc6987",,60.33
same,"YFP fluorescence quenching using Varenicline, 3 nM var",first column,18.429
same,"YFP fluorescence quenching using Varenicline, 3 nM var",second column,16.83
same,"YFP fluorescence quenching using Varenicline, 30 nM var",first column,23.07
same,"YFP fluorescence quenching using Varenicline, 30 nM var",second column,15.868
same,"YFP fluorescence quenching using Varenicline, 300 nM var",first column,18.819
same,"YFP fluorescence quenching using Varenicline, 300 nM var",second column,19.155
same,"YFP fluorescence quenching using Varenicline, 500 nM var",first column,19.117
same,"YFP fluorescence quenching using Varenicline, 500 nM var",second column,22.593
same,"YFP fluorescence quenching using Varenicline, 1 uM var",first column,24.525
same,"YFP fluorescence quenching using Varenicline, 1 uM var",second column,23.383
